Series [1] deals with the molecule itself. Kind of series: native MS; each protein alone at 20 μM; buffer exchanged into 250 mM ammonium acetate pH 7.6; dimer to monomers.
Series [2] addresses human CD6 domain 3 plus stalk fused to rat CD4 domains 3 and 4 (CD6 d3S) (human) (UniProt P30203). The series is described as follows: SPR; BIAcore 3000; CD6-CD4d3+4 chimeras (d1-3S, d2-3S, d3S) immobilised via the biotin tag to streptavidin, rat CD4 d3+4 in the control flow cell; soluble CD166 VVC injected, top 1.0 μM plus nine two-fold dilutions; 37 °C, HBS-EP, 20 μl/min; equilibrium binding, Langmuir 1:1 fit. For orientation: SPR reads the build-up and loss of mass on a sensor chip optically.

Series [3] addresses human CD6 domains 2-3 plus stalk fused to rat CD4 domains 3 and 4 (CD6 d2-3S) (human) (UniProt P30203). The series is described as above.
Series [4] deals with the molecule itself. Kind of series: SEC-MALS; Superdex200 10/30 in 50 mM Tris.HCl, pH 7.5, 150 mM NaCl, 0.4 ml/min; CD6 alone 39 µM, CD166 VVC alone 28 µM, equimolar mixture 27 µM each; samples diluted approximately 10-fold on the column. For orientation: Size exclusion chromatography separates by hydrodynamic size, large species first.
Series [5] addresses T1, human CD6 domains 1-3 plus stalk fused to rat CD4 domains 3 and 4 (CD6 d1-3S, wild type, S351) (human, UniProt P30203 18-402, biotin on the tag (immobilisation to streptavidin, Figure S1)).
T1 construct: also called CD6-CD4d3+4; CD6 WT; not shown: rat CD4 domains 3 and 4 (CD4d3+4), C-terminal, kept
T1 sequence (looked up): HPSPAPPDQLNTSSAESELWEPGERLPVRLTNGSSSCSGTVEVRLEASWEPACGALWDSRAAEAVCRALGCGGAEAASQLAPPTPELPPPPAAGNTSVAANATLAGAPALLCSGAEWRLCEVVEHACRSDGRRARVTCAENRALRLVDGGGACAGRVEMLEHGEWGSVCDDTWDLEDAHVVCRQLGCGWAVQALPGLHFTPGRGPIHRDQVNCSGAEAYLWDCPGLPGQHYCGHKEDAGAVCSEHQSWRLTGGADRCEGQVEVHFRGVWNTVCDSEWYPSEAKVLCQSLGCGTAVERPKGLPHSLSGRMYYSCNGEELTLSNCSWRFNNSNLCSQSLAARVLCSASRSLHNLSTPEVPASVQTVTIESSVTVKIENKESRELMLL
The series is described as follows: SPR; BIAcore 3000; CD6-CD4d3+4 chimeras (d1-3S, d2-3S, d3S) immobilised via the biotin tag to streptavidin, rat CD4 d3+4 in the control flow cell; soluble CD166 VVC injected, top 1.0 μM plus nine two-fold dilutions; 37 °C, HBS-EP, 20 μl/min; equilibrium binding, Langmuir 1:1 fit. The note with it: one partner purified.

For series [6], the target named is human CD6 domain 3 plus stalk fused to rat CD4 domains 3 and 4 (CD6 d3S) (human) (UniProt P30203). Described as above. This is another data set of the same source.
Series [7] deals with human CD6 domains 2-3 plus stalk fused to rat CD4 domains 3 and 4 (CD6 d2-3S) (human) (UniProt P30203). The description is as above. This is another data set of the same source.
In series [8] the target is T1, human CD6 domains 1-3 plus stalk fused …. The series is described as follows: SPR; BIAcore 3000; CD6 S351, S351A and S351N (CD4d3+4 chimeras) immobilised via OX68 mAb, rat CD4 d3+4 in the control flow cell; soluble CD166 VVC injected, top 2.5 μM plus nine two-fold dilutions; 25 °C, HBS-EP, 20 μl/min; KD from equilibrium binding (Langmuir 1:1), koff from one phase exponential decay. As to conditions: one partner purified.

For series [9], the target named is T2, human CD6-CD4d3+4 chimera, SNP variant S351N (human, UniProt P30203 18-402, S351N, N-linked glycosylation at N351 (shown by mass spectrometry)).
T2 construct: human CD6 extracellular region with the membrane proximal stalk, as Dm2; S351N is a SNP found in 10% of the genomes analyzed; The 293T cells and the purification with OX68-Sepharose are told for the sample used in the glycosylation mass spectrometry; also called CD6 S351N; CD6-CD4d3+4 S351N; source: transiently expressed in 293T cells; not shown: rat CD4 domains 3 and 4 (CD4d3+4), C-terminal, kept
T2 sequence (looked up): T1 sequence (looked up) with S334N
The description is as above. As to conditions: one partner purified.

For series [10], the target named is T3, human CD6-CD4d3+4 chimera, mutant S351A (human, UniProt P30203 18-402, S351A).
T3 construct: human CD6 extracellular region with the membrane proximal stalk, as Dm2; also called CD6 S351A; source: mutant made with a Q5 SDM kit; not shown: rat CD4 domains 3 and 4 (CD4d3+4), C-terminal, kept
T3 sequence (looked up): T1 sequence (looked up) with S334A
The series is described as above. As to conditions: one partner purified.

The target of series [11] is T1, human CD6 domains 1-3 plus stalk fused …. Described as above. The note with it: one partner purified. This is another data set of the same source.
Series [12] concerns the target T2, human CD6-CD4d3+4 chimera, SNP variant …. Described as above. The note with it: one partner purified. This is another data set of the same source.
Series [13] has as its target T3, human CD6-CD4d3+4 chimera, mutant S351A. Described as above. The note with it: one partner purified. The source holds these as a separate data set.
Series [14] addresses T1, human CD6 domains 1-3 plus stalk fused …. The series is described as follows: SPR; BIAcore 3000; CD6-CD4d3+4 chimeras (d1-3S, d2-3S, d3S) immobilised via the biotin tag to streptavidin, rat CD4 d3+4 in the control flow cell; soluble CD166 VVC injected, top 1.0 μM plus nine two-fold dilutions; 37 °C, HBS-EP, 20 μl/min; equilibrium binding, Langmuir 1:1 fit. The note with it: one partner purified. This is another data set of the same source.

The target in series [15] is T4, human CD6 S351N (SNP variant) (human, UniProt P30203 18-668, S351N, N-linked glycan at N351; N28, N49, N229 glycosylated, N339 appears partially glycosylated).
T4 construct: human CD6 with the SNP S351N, found in 10% of the genomes analyzed; made by mutagenesis; Probably the same chimeric, streptavidin-immobilized format as m3 (surmised); construct in the supplement
T4 sequence (looked up): T1 sequence (looked up) with S334N
Kind of series: SPR; soluble CD166 VVC over streptavidin-immobilized chimeric CD6 forms and variants. As to conditions: both partners purified.

Substitutions are numbered along the chain they refer to. Like-named read-outs stand apart in the source and are kept apart here.

As a reminder, the stoichiometry N is the number of molecules, sites or subunits per partner or assembly. The term Kd denotes a measure of binding affinity in units of concentration. A word on the koff: it is the rate constant with which the complex falls apart.

B1: human CD6 SRCR domains 1-3, His-tagged (residues 1-364) (domain or fragment, UniProt P30203 18-364, looked up)
chain: HPSPAPPDQLNTSSAESELWEPGERLPVRLTNGSSSCSGTVEVRLEASWEPACGALWDSRAAEAVCRALGCGGAEAASQLAPPTPELPPPPAAGNTSVAANATLAGAPALLCSGAEWRLCEVVEHACRSDGRRARVTCAENRALRLVDGGGACAGRVEMLEHGEWGSVCDDTWDLEDAHVVCRQLGCGWAVQALPGLHFTPGRGPIHRDQVNCSGAEAYLWDCPGLPGQHYCGHKEDAGAVCSEHQSWRLTGGADRCEGQVEVHFRGVWNTVCDSEWYPSEAKVLCQSLGCGTAVERPKGLPHSLSGRMYYSCNGEELTLSNCSWRFNNSNLCSQSLAARVLCSASR
modifications: N-linked glycans (endoglycosidase H sensitive; heterogeneity in mass caused by glycosylation; GlcNAc seen at N229 in the crystal)
notes: signal peptide in the construct; Deglycosylated with EndoHf only for crystallization; source: purified (NiNTA, Superdex200)
In the case of B1, the “stoichiometry N” value in [1] amounted to 2.

B2: soluble recombinant human CD166 VVC (IgSF domains 1-3, two V-like domains and one C-like domain), His-tagged (domain or fragment, UniProt Q13740 28-335, looked up)
chain: WYTVNSAYGDTIIIPCRLDVPQNLMFGKWKYEKPDGSPVFIAFRSSTKKSVQYDDVPEYKDRLNLSENYTLSISNARISDEKRFVCMLVTEDNVFEAPTIVKVFKQPSKPEIVSKALFLETEQLKKLGDCISEDSYPDGNITWYRNGKVLHPLEGAVVIIFKKEMDPVTQLYTMTSTLEYKTTKADIQMPFTCSVTYYGPSGQKTIHSEQAVFDIYYPTEQVTIQVLPPKNAIKEGDNITLKCLGNGNPPPEEFLFYLPGQPEGIRSSNTYTLTDVRRNATGDYKCSLIDKKSMIASTAITVHYLDLS
notes: signal peptide in the construct; human CD166 (ALCAM) residues 1-335 with the native leader; Deglycosylated with EndoHf only for crystallization; also called ALCAM; source: purified (NiNTA, Superdex200)
With B2, the Kd in series [2] came out at 100 nM; in [3], 90 nM; in [5], 90 nM; in [6], 86 nM; in series [7], 81 nM; in series [8] it was 90 nM. The Kd in series [9] was found to be 500 nM; in series [10], 60 nM; in [11], 120 nM; in series [12], 599 nM; in series [13], 83 nM; in series [14], 77 nM. For the same molecule, in series [4], the “stoichiometry N” value was 2. Also, the koff worked out at 0.07 s⁻¹ in series [8]; 0.4 s⁻¹ in series [9]; 0.05 s⁻¹ in series [10]; 0.072 s⁻¹ in series [11]; 0.337 s⁻¹ in [12]; 0.049 s⁻¹ in series [13].

B3: human CD166 IgSF domains 1-3 (CD166 VVC), His-tagged (residues 1-335) (domain or fragment, UniProt Q13740 28-335, looked up)
chain: B2 chain
modifications: N-linked glycans (endoglycosidase H sensitive; heterogeneity in mass caused by glycosylation)
notes: signal peptide in the construct; In the crystal (PDB 5a2f) only domains 1 and 2 were resolved; the third domain was probably cleaved off before crystal growth; protein deglycosylated with EndoHf for crystallization; also called ALCAM; source: purified (NiNTA, Superdex200)
For the molecule B3, the “stoichiometry N” value in series [1] came to 2. Further, the “fold weaker affinity than for CD6 S351” value in series [15] was found to be 10 fold.
